These substances were tested against HLA-B*08:01 (Homo sapiens, UniProt P01889) (assay: MHC binding assay (UV-ligand exchange, beta2m ELISA)). Conditions: MHC class I binding score; binding to HLA-B*08:01 ranged by peptide exchange yield (UV-ligand exchange, β2m ELISA).
From the text: Candidate peptides for T cell based therapies according to the present invention were further tested for their MHC binding capacity (affinity). The individual peptide-MHC complexes were produced by UV-ligand exchange, where a UV-sensitive peptide is cleaved upon UV-irradiation and exchanged with the peptide of interest as analyzed. Only peptide candidates that can effectively bind and stabilize the peptide-receptive MHC molecules prevent dissociation of the MHC complexes. To determine the yield of the exchange reaction, an ELISA was performed based on the detection of the light chain (β2m) of stabilized MHC complexes. The assay was performed as generally described in Rodenko et al. (Rodenko et al., 2006).
96 well MAXISorp plates (NUNC) were coated over night with 2 ug/ml streptavidin in PBS at room temperature, washed 4× and blocked for 1 h at 37° C. in 2% BSA containing blocking buffer. Refolded HLA-A*02:01/MLA-001 monomers served as standards, covering the range of 15-500 ng/ml. Peptide-MHC monomers of the UV-exchange reaction were diluted 100-fold in blocking buffer. Samples were incubated for 1 h at 37° C., washed four times, incubated with 2 ug/ml HRP conjugated anti-β2m for 1 h at 37° C., washed again and detected with TMB solution that is stopped with […]. Absorption was measured at 450 nm. Candidate peptides that show a high exchange yield (preferably higher than 50%, most preferred higher than 75%) are generally preferred for a generation and production of antibodies or fragments thereof, and/or T cell receptors or fragments thereof, as they show sufficient avidity to the MHC molecules and prevent dissociation of the MHC complexes.

Peptide exchange | Substance
++ (20% = ++) | 73 (MFPARGVPL; listed as Homo sapiens) [compound 73]
+++ (50% = +++) | 77 (LPKLPVPPL; listed as Homo sapiens) [compound 77]
++ (20% = ++) | 79 (GLARIYSF; listed as Homo sapiens) [compound 79]
++ (20% = ++) | 81 (MYRKEQYL; listed as Homo sapiens) [compound 81]
++ (20% = ++) | 84 (YITRQFVQF; listed as Homo sapiens) [compound 84]
++ (20% = ++) | 85 (QKPRKKKL; listed as Homo sapiens) [compound 85]
+++ (50% = +++) | 87 (QILQHHVL; listed as Homo sapiens) [compound 87]
++ (20% = ++) | 88 (MLLCLSLEL; listed as Homo sapiens) [compound 88]
++ (20% = ++) | 90 (TIGLGLHSL; listed as Homo sapiens) [compound 90]
+++ (50% = +++) | 92 (TLKAMVQAW; listed as Homo sapiens) [compound 92]
+++ (50% = +++) | 93 (LMKEKIQEM; listed as Homo sapiens) [compound 93]
+++ (50% = +++) | 94 (DQLLRHVM; listed as Homo sapiens) [compound 94]
++ (20% = ++) | 95 (SRNPRGFFL; listed as Homo sapiens) [compound 95]
++ (20% = ++) | 96 (RPAGVFEL; listed as Homo sapiens) [compound 96]
+++ (50% = +++) | 97 (EPVTKAEM; listed as Homo sapiens) [compound 97]
++ (20% = ++) | 98 (EPVNTNVVL; listed as Homo sapiens) [compound 98]
++ (20% = ++) | 99 (NVKIRFLE; listed as Homo sapiens) [compound 99]
++ (20% = ++) | 100 (VLLMGPLHL; listed as Homo sapiens) [compound 100]
+++ (50% = +++) | 101 (FAFEKLIQF; listed as Homo sapiens) [compound 101]
+++ (50% = +++) | 102 (IMKKIRESY; listed as Homo sapiens) [compound 102]
+++ (50% = +++) | 103 (IANLRVKNI; listed as Homo sapiens) [compound 103]

Peptide exchange | Substance
++ (20% = ++) | 104 (FAFGEPREL; listed as Homo sapiens) [compound 104]
++ (20% = ++) | 105 (APLKMLALV; listed as Homo sapiens) [compound 105]
++ (20% = ++) | 106 (HLHLLETSI; listed as Homo sapiens) [compound 106]
++ (20% = ++) | 107 (LPKGLKDWQA; listed as Homo sapiens) [compound 107]
++ (20% = ++) | 108 (RSYYHPTNL; listed as Homo sapiens) [compound 108]
++ (20% = ++) | 109 (IPASHPVLTL; listed as Homo sapiens) [compound 109]
+++ (50% = +++) | 110 (DAMTKHTL; listed as Homo sapiens) [compound 110]
++ (20% = ++) | 111 (GAGLRITAPL; listed as Homo sapiens) [compound 111]
++ (20% = ++) | 112 (NALDPLSAL; listed as Homo sapiens) [compound 112]
++ (20% = ++) | 113 (MEKGLASL; listed as Homo sapiens) [compound 113]
++ (20% = ++) | 114 (PVKPKFYL; listed as Homo sapiens) [compound 114]
++ (20% = ++) | 115 (MRILKRFLAC; listed as Homo sapiens) [compound 115]
++ (20% = ++) | 116 (FTQNPRVQL; listed as Homo sapiens) [compound 116]
++ (20% = ++) | 117 (VGPNGFKSL; listed as Homo sapiens) [compound 117]
+++ (50% = +++) | 118 (MAFVKHLL; listed as Homo sapiens) [compound 118]
+++ (50% = +++) | 119 (FQRVSSVSF; listed as Homo sapiens) [compound 119]
++ (20% = ++) | 120 (AQRSEMVTL; listed as Homo sapiens) [compound 120]
++ (20% = ++) | 121 (YSQLSISL; listed as Homo sapiens) [compound 121]
++ (20% = ++) | 122 (ESSAQPTAL; listed as Homo sapiens) [compound 122]
++ (20% = ++) | 123 (SLLPFTLSF; listed as Homo sapiens) [compound 123]
+++ (50% = +++) | 124 (HSWTRTSV; listed as Homo sapiens) [compound 124]

Peptide exchange | Substance
+++ (50% = +++) | 125 (FPLVTPLL; listed as Homo sapiens) [compound 125]
++ (20% = ++) | 126 (TAAEARLSL; listed as Homo sapiens) [compound 126]
+++ (50% = +++) | 127 (EPVIRTVSI; listed as Homo sapiens) [compound 127]
+++ (50% = +++) | 128 (HFHNRHVF; listed as Homo sapiens) [compound 128]
+++ (50% = +++) | 129 (HRILRLPAL; listed as Homo sapiens) [compound 129]
++ (20% = ++) | 130 (LPAPYQHQL; listed as Homo sapiens) [compound 130]
++ (20% = ++) | 131 (MSTKTTSI; listed as Homo sapiens) [compound 131]
+++ (50% = +++) | 132 (IPIQAHQI; listed as Homo sapiens) [compound 132]
++ (20% = ++) | 133 (QATPRVRIL; listed as Homo sapiens) [compound 133]
++ (20% = ++) | 134 (DQRSRATL; listed as Homo sapiens) [compound 134]
+ (0% = +) | 135 (EYLETKRLAF; listed as Homo sapiens) [compound 135]
+++ (50% = +++) | 136 (KMFYRKDVM; listed as Homo sapiens) [compound 136]
++ (20% = ++) | 137 (VQWKPPAL; listed as Homo sapiens) [compound 137]
+++ (50% = +++) | 138 (TQHLTVATL; listed as Homo sapiens) [compound 138]
++ (20% = ++) | 139 (YGRIGISLF; listed as Homo sapiens) [compound 139]
++ (20% = ++) | 140 (IAVDKPITL; listed as Homo sapiens) [compound 140]
++ (20% = ++) | 141 (AQLKLVAL; listed as Homo sapiens) [compound 141]
+++ (50% = +++) | 142 (YNLIYSMCL; listed as Homo sapiens) [compound 142]
++ (20% = ++) | 143 (DADLREQAL; listed as Homo sapiens) [compound 143]
